Biological target: isochorismatase-like hydrolase Mh33H4-5540 from Microbacterium hydrocarbonoxydans (Microbacterium hydrocarbonoxydans)
Test: SEC; gel filtration of purified MhIHL (Supplementary Fig. S1); conditions of this run not told in the main text

Question: With “isochorismatase-like hydrolase Mh33H4-5540 from Microbacterium hydrocarbonoxydans (enzyme)” as the substance, how does the stoichiometry N read?
Answer: 2
